In US20250283886:

Experiments:
[1] = molecular target: T1, KKMKKM{LYS(N3)} peptide-linker conjugate, oligo linker (Table 6 entry 2)
T1 chain: KKMKKMX

[2] = molecular target: […]{LYS(N3)} peptide-linker conjugate, oligo linker (Table 6 entry 5)
[3] = molecular target: T2, KKMKKM{LYS(N3)} peptide-linker conjugate, PEG4 linker (Table 6 entry 4)
T2 chain: KKMKKMX

[4] = molecular target: […]{LYS(N3)} peptide-linker conjugate, oligo linker (Table 6 entry 7)
[5] = molecular target: T3, FFMFFM{LYS(N3)} peptide-linker conjugate, oligo linker (Table 6 entry 6)
T3 chain: FFMFFMX

[6] = molecular target: KF peptide-linker conjugate, oligo linker (Table 6 entry 1)
[7] = molecular target: T4, KKMKKM{LYS(N3)} peptide-linker conjugate, oligo-PEG linker (Table 6 entry 3)
T4 chain: KKMKKMX

FYPLPWPDDDY{LYSN3}NH2 = molecular target: T5, FYPLPWPDDDY{LYSN3}NH2
T5 chain: FYPLPWPDDDYX

FAAAYPDDDF1 = molecular target: T6, FAAAYPDDDF1
T6 chain: FAAAYPDDDF

WAAAFPDDDF1 = molecular target: T7, WAAAFPDDDF1
T7 chain: WAAAFPDDDF

FAAAWPDDDF1 = molecular target: T8, FAAAWPDDDF1
T8 chain: FAAAWPDDDF

B1: rat aminopeptidase N (protein)
chain: KPWNQYRLPKTLIPDSYQVTLRPYLTPNEQGLYIFKGSSTVRFTCNETTNVIIIHSKKLNYTNKGNHRVALRALGDTPAPNIDTTELVERTEYLVVHLQGSLVKGHQYEMDSEFQGELADDLAGFYRSEYMEGGNKKVVATTQMQAADARKSFPCFDEPAMKASFNITLIHPNNLTALSNMLPKDSRTLQEDPSWNVTEFHPTPKMSTYLLAYIVSEFKYVEAVSPNRVQIRIWARPSAIDEGHGDYALQVTGPILNFFAQHYNTAYPLEKSDQIALPDFNAGAMENWGLVTYRESALVFDPQSSSISNKERVVTVIAHELAHQWFGNLVTVDWWNDLWLNEGFASYVEFLGADYAEPTWNLKDLIVLNDVYRVMAVDALASSHPLSSPANEVNTPAQISELFDSITYSKGASVLRMLSSFLTEDLFKKGLSSYLHTFQYSNTIYLDLWEHLQQAVDSQTAIKLPASVSTIMDRWILQMGFPVITVNTSTGEIYQEHFLLDPTSKPTRPSDFNYLWIVPIPYLKNGKEDHYWLETEKNQSAEFQTSSNEWLLLNINVTGYYQVNYDENNWRKIQNQLQTDLSVIPVINRAQIIHDSFNLASAGKLSITLPLSNTLFLASETEYMPWEAALSSLNYFKLMFDRSEVYGPMKRYLKKQVTPLFAYFKIKTNNWLDRPPTLMEQYNEINAISTACSSGLEECRDLVVGLYSQWMNNSDNNPIHPNLRSTVYCNAIAFGGEEEWNFAWEQFRKATLVNEADKLRSALACSNEVWILNRYLSYTLNPDYIRKQDATSTIVSIANNVVGQTLVWDFVRSNWKKLFEDYGGGSFSFANLIQGVTRRFSSEFELQQLEQFKEDNSATGFGSGTRALEQALEKTKANIKWVKENKDVVLKWFTENS
Yes: Cleaved by Rat APN [2] | Cleaved by Rat APN [3] | Cleaved by Rat APN [4] | Cleaved by Rat APN [5]
No: Cleaved by Rat APN [1] | Cleaved by Rat APN [6] | Cleaved by Rat APN [7]

B2: Vibrio proteolyticus aminopeptidase (protein)
chain: MPPITQQATVTAWLPQVDASQITGTISSLESFTNRFYTTTSGAQASDWIASEWQALSASLPNASVKQVSHSGYNQKSVVMTITGSEAPDEWIVIGGHLDSTIGSHTNEQSVAPGADDDASGIAAVTEVIRVLSENNFQPKRSIAFMAYAAEEVGLRGSQDLANQYKSEGKNVVSALQLDMTNYKGSAQDVVFITDYTDSNFTQYLTQLMDEYLPSLTYGFDTCGYACSDHASWHNAGYPAAMPFESKFNDYNPRIHTTQDTLANSDPTGSHAKKFTQLGLAYAIEMGSATGDTPTPGNQ
56%: HPLC Assay Conv; 1200 uM Peptide, 0.008 uM enzyme, pH 6.5, RT/0.5 hr (FYPLPWPDDDY{LYSN3}NH2)
70%: HPLC Assay Conv; 300 uM Peptide, 8 uM enzyme, pH 8, 60 mM KOAc, RT/0.5 hr (WAAAFPDDDF1)
5%: HPLC Assay Conv; 600 uM Peptide, 0.08 uM enzyme, RT/0.5 hr (FAAAYPDDDF1) | HPLC Assay Conv; 300 uM Peptide, 8 uM enzyme, RB2 + Mg, RT/0.5 hr (WAAAFPDDDF1)
2.70%: HPLC Assay Conv; 1200 uM Peptide, 800 pM enzyme, pH 7.5, RT/0.5 hr (FYPLPWPDDDY{LYSN3}NH2)
100%: HPLC Assay Conv; 200 uM Peptide, 8 uM enzyme, MOPS pH 5.0, RT/0.5 hr (FYPLPWPDDDY{LYSN3}NH2) | HPLC Assay Conv; 200 uM Peptide, 8 uM enzyme, MOPS pH 5.0, RT/1 hr (FYPLPWPDDDY{LYSN3}NH2) | HPLC Assay Conv; 600 uM Peptide, 0.8 uM enzyme, pH 5.5, RT/0.5 hr (FYPLPWPDDDY{LYSN3}NH2) | HPLC Assay Conv; 600 uM Peptide, 0.8 uM enzyme, pH 6.5, RT/0.5 hr (FYPLPWPDDDY{LYSN3}NH2) | HPLC Assay Conv; 600 uM Peptide, 0.8 uM enzyme, pH 7.5, RT/0.5 hr (FYPLPWPDDDY{LYSN3}NH2) | HPLC Assay Conv; 600 uM Peptide, 0.8 uM enzyme, pH 8.5, RT/0.5 hr (FYPLPWPDDDY{LYSN3}NH2) | HPLC Assay Conv; 1200 uM Peptide, 0.008 uM enzyme, pH 7.5, RT/0.5 hr (FYPLPWPDDDY{LYSN3}NH2) | HPLC Assay Conv; 1200 uM Peptide, 0.008 uM enzyme, pH 8.5, RT/0.5 hr (FYPLPWPDDDY{LYSN3}NH2) | HPLC Assay Conv; 1200 uM Peptide, 0.08 uM enzyme, pH 6.5, RT/0.5 hr (FYPLPWPDDDY{LYSN3}NH2) | HPLC Assay Conv; 1200 uM Peptide, 0.08 uM enzyme, pH 7.5, RT/0.5 hr (FYPLPWPDDDY{LYSN3}NH2) | HPLC Assay Conv; 1200 uM Peptide, 0.08 uM enzyme, pH 8.5, RT/0.5 hr (FYPLPWPDDDY{LYSN3}NH2) | HPLC Assay Conv; 600 uM Peptide, 8 uM enzyme, RT/0.5 hr (FAAAYPDDDF1) | HPLC Assay Conv; 300 uM Peptide, 8 uM enzyme, RB4, RT/0.5 hr (WAAAFPDDDF1) | HPLC Assay Conv; 300 uM Peptide, 8 uM enzyme, pH 8, 60 mM KOAc, RT/2 hr (WAAAFPDDDF1) | HPLC Assay Conv; 300 uM Peptide, 8 uM enzyme, pH 8, 0.2% Tween20, RT/0.5 hr (WAAAFPDDDF1) | HPLC Assay Conv; 300 uM Peptide, 8 uM enzyme, pH 8, RT/0.5 hr (WAAAFPDDDF1) | HPLC Assay Conv; 600 uM Peptide, 8 uM enzyme, pH 8, RT/0.5 hr (WAAAFPDDDF1) | HPLC Assay Conv; 600 uM Peptide, 8 uM enzyme, pH 8, RT/0.5 hr (FAAAWPDDDF1)
1.40%: HPLC Assay Conv; 1200 uM Peptide, 0.008 uM enzyme, pH 5.5, RT/0.5 hr (FYPLPWPDDDY{LYSN3}NH2)
30%: HPLC Assay Conv; 300 uM Peptide, 8 uM enzyme, 50/50 MOPS Mg buffer/RB1, RT/0.5 hr (WAAAFPDDDF1)
50%: HPLC Assay Conv; 1200 uM Peptide, 0.08 uM enzyme, pH 5.5, RT/0.5 hr (FYPLPWPDDDY{LYSN3}NH2) | HPLC Assay Conv; 600 uM Peptide, 0.8 uM enzyme, RT/0.5 hr (FAAAYPDDDF1)
6.80%: HPLC Assay Conv; 1200 uM Peptide, 800 pM enzyme, pH 8.5, RT/0.5 hr (FYPLPWPDDDY{LYSN3}NH2)
